Values belong to the binder of their own block, whether it stands above or below them.
B1: rat TrkB extracellular domain expressed with a C-terminal myc-myc-hexahistidine tag (receptor)
chain: CPMSCKCSTTRIWCTEPSPGIVAFPRLEPNSIDPENITEILIANQKRLEIINEDDVEAYVGLKNLTIVDSGLKFVAYKAFLKNGNLRHINFTRNKLTSLSRRHFRHLDLSDLILTGNPFTCSCDIMWLKTLQETKSSPDTQDLYCLNESSKNTPLANLQIPNCGLPSARLAAPNLTVEEGKSVTISCSVGGDPLPTLYWDVGNLVSKHMNETSHTQGSLRITNISSDDSGKQISCVAENLVGEDQDSVNLTVHFAPTITFLESPTSDHHWCIPFTVRGNPKPALQWFYNGAILNESKYICTKIHVTNHTEYHGCLQLDNPTHMNNGDYTLMAKNEYGKDERQISAHFMGRPGVDYETNPNYPEVLYEDWTTPTDIGDTTNKSNEIPSTDVADQTNREHEQKLISEEDLGGEQKLISEEDLHHHHHH
notes: also called rTrkB.mmH; rTRKB.mmH
B2: human brain derived neurotrophic factor (ligand, UniProt P23560 129-247, looked up)
chain: HSDPARRGELSVCDSISEWVTAADKKTAVDMSGGTVTVLEKVPVSKGQLKQYFYETKCNPMGYTKEGCRGIDKRHWNSQCRTTQSYVRALTMDSKKRIGWRFIRIDTSCVCTLTIKRGR

Tests used:
[1] = molecular target: B2; experiment: ELISA, dose-response of TrkB on plate-coated BDNF
From the text: FIG. 5. Consists of FIG. 5A and FIG. 5B which show the ability of anti-mouse TrkB monoclonal antibodies to block interaction between mouse or rat TrkB and its ligand BDNF (Brain Derived Neurotrophic Factor). ELISA-based methods were used to assess the binding of (FIG. 5A with two graphs) mouse TrkB.hFc and (FIG. 5B with two graphs) rat TrkB.mmh to plate coated BDNF in presence of a range of concentrations of Anti-mouse TrkB and isotype control mAbs. […] Molarity (M) indicates antibody concentration for mAbs. Error bars represent Standard Deviation.
(§1) Experiments were carried out using the following procedure. Human BDNF was coated at a concentration of 0.5 μg/mL (for blocking mouse TrkB.hFc interaction) or 0.3 μg/mL (for blocking rat TrkB.mmh interaction) in PBS on 96-well microtiter plate and incubated overnight at 4° C. […] In a 96-well dilution plate, 850 pM mouse TrkB.hFc or rat TrkB.mmh was mixed with the three-fold serially diluted anti-mouse TrkB antibodies and control antibody. The final antibody concentrations ranged from 1.69 pM to 100 nM. The protein-antibody mix was incubated at room temperature (RT) for 1 hour. […] Plate-bound mouse TrkB.hFc was detected with HRP-conjugated goat anti-human Fcγ fragment specific antibody (Jackson Immunoresearch) and rat TrkB.mmh was detected with HRP-conjugated anti-histidine antibody (Qiagen). […]

[2] = molecular target: B2; experiment: ELISA: dose curve of rat TrkB.mmh binding to plate-coated BDNF, absorbance 450 nm
Experimental: as §1, with “hour. The pre-bound mix was then transferred in duplicates to microtiter plates coated with BDNF.” for “hour.”
The absorbance at 450 nm for each well was recorded and plotted as a function of the concentration of antibody. Data was analyzed in GraphPad Prism software using a four-parameter logistic equation over an 11-point dose response curve and IC₅₀ values were calculated. […] Percent blockade at maximum concentration of the antibody tested was calculated as an indicator of the ability of the antibodies to block the binding of TrkB to BDNF on the plate relative to the baseline of the assay. […]

[3] = molecular target: T1, human TrkB expressed on HEK293/SRE-Luc/hTrkB cells (human, UniProt Q16620 32-822); experiment: cell-based or functional assay
T1 sequence (Q16620 32-822): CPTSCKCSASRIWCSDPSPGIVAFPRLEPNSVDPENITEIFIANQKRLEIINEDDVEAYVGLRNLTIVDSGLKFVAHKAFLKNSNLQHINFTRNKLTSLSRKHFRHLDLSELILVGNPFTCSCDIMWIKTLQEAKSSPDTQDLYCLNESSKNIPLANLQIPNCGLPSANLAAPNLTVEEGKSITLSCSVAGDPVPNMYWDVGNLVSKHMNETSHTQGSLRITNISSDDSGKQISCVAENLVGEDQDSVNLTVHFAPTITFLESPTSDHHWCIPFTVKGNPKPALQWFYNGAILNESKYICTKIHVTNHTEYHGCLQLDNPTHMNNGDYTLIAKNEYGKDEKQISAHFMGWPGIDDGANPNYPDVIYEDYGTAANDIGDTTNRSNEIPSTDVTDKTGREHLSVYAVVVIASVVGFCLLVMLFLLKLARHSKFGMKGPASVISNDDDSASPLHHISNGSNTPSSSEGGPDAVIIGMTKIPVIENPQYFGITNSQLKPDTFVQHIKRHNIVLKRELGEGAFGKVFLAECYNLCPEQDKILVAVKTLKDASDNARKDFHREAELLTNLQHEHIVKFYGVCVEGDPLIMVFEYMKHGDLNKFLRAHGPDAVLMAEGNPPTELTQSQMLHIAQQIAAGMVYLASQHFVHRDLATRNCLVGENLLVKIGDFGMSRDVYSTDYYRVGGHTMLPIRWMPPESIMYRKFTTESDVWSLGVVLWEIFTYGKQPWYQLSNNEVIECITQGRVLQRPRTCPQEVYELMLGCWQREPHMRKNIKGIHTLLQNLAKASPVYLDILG

[4] = molecular target: T2, mouse TrkB extracellular domain fused to the transmembrane and cytoplasmic domains of human TrkB, expressed … (mouse; human, UniProt Q16620 431-822, limits assumed); experiment: cell-based or functional assay
T2 sequence (Q16620 other isoform, or with tags, fused parts or gaps limits assumed, form in doubt): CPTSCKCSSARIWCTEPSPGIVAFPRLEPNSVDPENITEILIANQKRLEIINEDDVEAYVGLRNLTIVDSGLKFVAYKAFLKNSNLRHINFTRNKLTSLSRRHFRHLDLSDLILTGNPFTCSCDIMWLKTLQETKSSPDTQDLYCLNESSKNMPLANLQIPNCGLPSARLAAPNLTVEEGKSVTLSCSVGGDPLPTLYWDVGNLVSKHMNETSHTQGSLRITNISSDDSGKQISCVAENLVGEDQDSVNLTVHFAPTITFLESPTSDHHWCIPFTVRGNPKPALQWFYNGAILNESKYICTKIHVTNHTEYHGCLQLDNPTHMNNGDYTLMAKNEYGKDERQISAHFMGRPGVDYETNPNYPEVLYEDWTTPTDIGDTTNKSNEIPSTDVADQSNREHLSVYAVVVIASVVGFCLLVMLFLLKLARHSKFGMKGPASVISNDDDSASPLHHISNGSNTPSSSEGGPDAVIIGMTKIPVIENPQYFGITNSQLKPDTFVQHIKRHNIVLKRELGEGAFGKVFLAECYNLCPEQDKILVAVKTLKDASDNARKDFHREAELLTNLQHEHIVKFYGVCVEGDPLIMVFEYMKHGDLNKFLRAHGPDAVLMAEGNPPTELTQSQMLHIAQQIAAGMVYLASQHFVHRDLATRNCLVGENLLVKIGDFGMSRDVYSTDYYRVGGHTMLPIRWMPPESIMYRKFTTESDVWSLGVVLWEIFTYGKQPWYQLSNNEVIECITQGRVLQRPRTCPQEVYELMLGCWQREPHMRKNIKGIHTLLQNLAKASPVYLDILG

[5] = molecular target: T1, human TrkB expressed on …; experiment: cell-based or functional assay; remark: listed apart in the source
[6] = molecular target: T2, mouse TrkB extracellular domain fused …; experiment: cell-based or functional assay; remark: listed apart in the source
[7] = molecular target: T3, mouse TrkB extracellular domain expressed with a C-terminal myc-myc-hexahistidine tag (mouse, UniProt P15209 32-429); experiment: SPR Biacore T200, mAb captured (anti-mFc), 25C
T3 construct: also called mTrkB.mmH; mTRKB.mmH
Experimental: (§2) Equilibrium dissociation constants (KD values) for TrkB binding to purified anti-TrkB monoclonal antibodies were determined using a real-time surface plasmon resonance biosensor using a Biacore T200 instrument. All binding studies were performed in 10 mM Hepes pH 7.4, 150 mM NaCl, 3 mM EDTA, and 0.05% v/v Surfactant Tween-20 (HBS-ET running buffer) at 25° C. The Biacore sensor surface was first derivatized by amine coupling with rabbit anti-mouse Fc polyclonal antibody (GE Healthcare #BR-1008-38) to capture anti-TrkB monoclonal antibodies. Binding studies were performed on the following TrkB reagents; human TrkB extracellular domain expressed with a C-terminal myc-myc-hexahistidine tag (hTrkB.mmH; SEQ ID NO: 76; NP_001018074.1), mouse TrkB extracellular domain expressed with a C-terminal myc-myc-hexahistidine tag (mTRKB.mmH; SEQ ID NO: 79; NP_001020245), and rat TrkB extracellular domain expressed with a C-terminal myc-myc-hexahistidine tag (rTRKB.mmH; SEQ ID NO: 84; XP_002721319.1). […] Kinetic association (kₐ) and dissociation (kd) rate constants were determined by fitting the real-time binding sensorgrams to a 1:1 binding model with mass transport limitation using Scrubber 2.0c curve-fitting software. Binding dissociation equilibrium constants (KD) and dissociative half-lives (t½) were calculated from the kinetic rate constants as: […]

[8] = molecular target: B1; experiment: SPR Biacore T200, mAb captured (anti-mFc), 25C
Experimental: as §2

[9] = molecular target: T4, human TrkB extracellular domain expressed with a C-terminal myc-myc-hexahistidine tag (human, UniProt Q16620 32-430); experiment: SPR Biacore T200, mAb captured (anti-mFc), 25C
T4 construct: also called hTrkB.mmH; hTRKB.mmH
Experimental: as §2

[10] = molecular target: T5, mouse TrkB.hFc (mouse); experiment: BLI Octet, captured mTrkB.hFc, 300 nM mAb, no ligand
T5 construct: also called mTrkB.hFc; mTrkB-hFc
T5 sequence (chain, as listed by the source limits assumed): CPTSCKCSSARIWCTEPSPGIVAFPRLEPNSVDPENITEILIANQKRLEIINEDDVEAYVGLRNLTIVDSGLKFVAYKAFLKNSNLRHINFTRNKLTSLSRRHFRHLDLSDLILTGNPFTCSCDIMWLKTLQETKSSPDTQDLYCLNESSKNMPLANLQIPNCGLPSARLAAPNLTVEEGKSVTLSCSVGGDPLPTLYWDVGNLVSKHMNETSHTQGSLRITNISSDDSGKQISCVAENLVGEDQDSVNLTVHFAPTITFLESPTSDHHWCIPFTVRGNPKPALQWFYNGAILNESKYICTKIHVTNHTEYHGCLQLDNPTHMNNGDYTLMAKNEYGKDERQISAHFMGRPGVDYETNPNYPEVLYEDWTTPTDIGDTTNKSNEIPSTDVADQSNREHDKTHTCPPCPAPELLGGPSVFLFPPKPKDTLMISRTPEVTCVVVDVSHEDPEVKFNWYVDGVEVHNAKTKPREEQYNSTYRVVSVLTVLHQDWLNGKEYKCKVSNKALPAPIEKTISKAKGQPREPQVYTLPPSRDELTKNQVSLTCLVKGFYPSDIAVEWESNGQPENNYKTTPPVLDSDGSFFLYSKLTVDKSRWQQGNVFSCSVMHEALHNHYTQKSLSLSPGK
Experimental: (§3) Blocking of anti-human TrkB or anti-mouse TrkB antibodies from binding to TrkB by BDNF or NT-4 was evaluated using a real-time bio-layer interferometry (BLI) based Octet HTX instrument. The entire study was performed in 10 mM HEPES pH 7.4, 300 mM NaCl, 3 mM EDTA, 1 mg/mL BSA, 0.02% NaN3 and 0.05% v/v Surfactant Tween-20 (HBS-EBT running buffer) at 25° C. All the samples were dispensed in a 384 tilted well plate and the plate was placed on the orbital shaker with the shake speed of 1000 rpm. hTrkB.mFc was captured on anti-mFc (AMC) Octet sensors while hTrkB.hFc or mTrkB.hFc were captured on anti-hFc (AHC) Octet sensors by dipping in wells containing 10 μg/mL of TrkB reagents for 2 minutes. hTrkB.mFc or hTrkB.hFc captured Octet biosensors were saturated by dipping in wells containing 20 nM of BDNF, hNT-4, or mNT-4 for 2 minutes followed by dipping Octet biosensors in wells containing 300 nM of different TrkB mAbs for 4 minutes. Binding of TrkB mAbs to the complex of TrkB and BDNF, hNT-4, or mNT-4 was determined using Scrubber 2.0c analysis software.

[11] = molecular target: T5, mouse TrkB.hFc; experiment: BLI Octet, captured mTrkB.hFc, 300 nM mAb (BDNF run)
Experimental: (§4) Blocking of BDNF or NT-4 from binding to TrkB by anti-human TrkB or anti-mouse TrkB antibodies was evaluated using a real-time bio-layer interferometry (BLI) based Octet HTX instrument. The entire study was performed in 10 mM HEPES pH 7.4, 300 mM NaCl, 3 mM EDTA, 1 mg/mL BSA, 0.02% NaN3 and 0.05% v/v Surfactant Tween-20 (HBS-EBT running buffer) at 25° C. All the samples were dispensed in a 384 tilted well plate and the plate was placed on the orbital shaker with the shake speed of 1000 rpm. hTrkB.mFc was captured on anti-mFc (AMC) Octet sensors while hTrkB.hFc or mTrkB.hFc were captured on anti-hFc (AHC) Octet sensors by dipping in wells containing 10 μg/mL of TrkB reagents for 2 minutes. hTrkB.mFc or hTrkB.hFc captured Octet biosensors were saturated by dipping in wells containing 300 nM of different TrkB mAbs for 4 minutes followed by dipping Octet biosensors in wells containing 20 nM of BDNF, hNT-4, or mNT-4 for 2 minutes. Binding of BDNF, hNT-4, or mNT-4 to the complex of TrkB and different TrkB mAbs was determined using Scrubber 2.0c analysis software.

[12] = molecular target: T5, mouse TrkB.hFc; experiment: BLI Octet, captured mTrkB.hFc, 300 nM mAb (NT-4 run)
Experimental: as §4

[13] = molecular target: T5, mouse TrkB.hFc; experiment: BLI Octet, captured mTrkB.hFc saturated with BDNF, 300 nM mAb
Experimental: as §3

[14] = molecular target: T5, mouse TrkB.hFc; experiment: BLI Octet, captured mTrkB.hFc saturated with mNT-4, 300 nM mAb
Experimental: as §3

[15] = molecular target: B1; experiment: blocking ELISA, rat TrkB.mmh pre-mixed with mAb, plate-coated BDNF
Experimental: (§5) Experiments were carried out using the following procedure. Human BDNF was coated at a concentration of 0.5 μg/mL (for blocking mouse TrkB.hFc interaction) or 0.3 μg/mL (for blocking rat TrkB.mmh interaction) in PBS on 96-well microtiter plate and incubated overnight at 4° C. […] In a 96-well dilution plate, 850 pM mouse TrkB.hFc or rat TrkB.mmh was mixed with the three-fold serially diluted anti-mouse TrkB antibodies and control antibody. The final antibody concentrations ranged from 1.69 pM to 100 nM. The protein-antibody mix was incubated at room temperature (RT) for 1 hour. The pre-bound mix was then transferred in duplicates to microtiter plates coated with BDNF. A control containing assay buffer alone was included to calculate the baseline of the assay. The ELISA plates were incubated at RT for 1 hour and then washed with plate washing solution. Plate-bound mouse TrkB.hFc was detected with HRP-conjugated goat anti-human Fcγ fragment specific antibody (Jackson Immunoresearch) and rat TrkB.mmh was detected with HRP-conjugated anti-histidine antibody (Qiagen). The plates were incubated with detection antibody for 1 hour at RT and then washed with plate washing solution. The assay plates were developed with TMB colorimetric substrates according to the manufacturer's recommended procedure.
(§6) The absorbance at 450 nm for each well was recorded and plotted as a function of the concentration of antibody. Data was analyzed in GraphPad Prism software using a four-parameter logistic equation over an 11-point dose response curve and IC₅₀ values were calculated. […] Percent blockade at maximum concentration of the antibody tested was calculated as an indicator of the ability of the antibodies to block the binding of TrkB to BDNF on the plate relative to the baseline of the assay. Binding signal of 850 pM mouse or rat TrkB in absence of the antibody was defined as 100% binding or 0% blocking. The baseline signal of assay buffer alone was defined as 0% binding or 100% blocking.

[16] = molecular target: T5, mouse TrkB.hFc; experiment: blocking ELISA, mouse TrkB.hFc pre-mixed with mAb, plate-coated BDNF
Experimental: as §5, §6

Binder: B1
EC50 [1]: 2.2 nM
EC50 [2]: 2.22 nM

Binder: B2
BDNF EC50 (M), SRE-luciferase [3]: 1e-10 M
BDNF EC50 (M), SRE-luciferase [4]: 7.4e-11 M
BDNF EC50 (M), SRE-luciferase (run of the 100 pM BDNF columns) [5]: 1e-10 M
BDNF EC50 (M), SRE-luciferase (run of the No BDNF columns) [5]: 1.3e-10 M
BDNF EC50 (M), SRE-luciferase (run of the 100 pM BDNF columns) [6]: 1.1e-10 M
BDNF EC50 (M), SRE-luciferase (run of the No BDNF columns) [6]: 7.4e-11 M

Activation (%), SRE-luciferase, 100 pM BDNF [5]: 52%
Activation (%), SRE-luciferase, No BDNF [5]: 0%
Activation (%), SRE-luciferase, 100 pM BDNF [6]: 67%
Activation (%), SRE-luciferase, No BDNF [6]: 76%
EC50 (M), SRE-luciferase, 100 pM BDNF [6]: 1e-10 M
EC50 (M), SRE-luciferase, No BDNF [6]: 1.9e-10 M
90 nM TrkB.mmH Bound (RU) [7]: 12 RU
Kd [7]: 2.39 nM
koff [7]: 0.000247 s⁻¹
kon [7]: 103000 M⁻¹ s⁻¹
t½ [7]: 47 min
90 nM rTrkB.mmH Bound (RU) [8]: 11 RU
Kd [8]: 2.56 nM
koff [8]: 0.00023 s⁻¹
kon [8]: 90000 M⁻¹ s⁻¹
t½ [8]: 50 min
90nM hTrkB.mmH Bound (RU) [9]: -1 RU
antibody Binding (nm) [10]: 0.47 nm
mAb Binding (nm) [11]: 0.47 nm
mAb Binding (nm) [12]: 0.47 nm
antibody Binding (nm) [13]: 0.35 nm
antibody Binding (nm) [14]: 0.41 nm
% Blockade with 100 nM antibody [15]: 89.5%
IC50 [15]: 0.184 nM
% Blockade with 100 nM antibody [16]: 84.4%
IC50 [16]: 0.426 nM
B3: M2aM14178N (antibody, mouse IgG2a, V domains shown)
VH: EVQLVESGGGLVKPGGSLKLSCTASGFTFSSYAMSWVRQTPEKRLEWVANISDGGTYTYYPDNIKGRFTISRDNAKNNLYLQMSHLESEDTAMYYCIRGDVYYVRFAYWGQGTLVTVSA
VL: QAVVTQESALTTSPGETVTLTCRSSTGAVTSSNHANWVQEKPDHLFTGLIGGTNNRAPGVPARFSGSLIGDKAALTITGAQTEDEAIYFCALWHSNHWVFGGGTKLTVLG
notes: Anti-mouse TrkB antibody from hybridoma, mouse IgG2a Fc; also called surrogate anti-mouse TrkB antibody
